PMC3082517 (PLoS Biology, 2011)

Legend:
TrkA [1] = target: T1, TrkA (Rattus norvegicus, UniProt P35739); assay: TrkA phosphorylation in HEK293^TrkA transfectants (anti-tyrosine IP, Western blot); format: cell-based; design: expressed in transfected cells; host or cells: HEK293; settings: 10 min (and 20 min), steroids 100 nM, NGF 100 ng/ml
Protocol: (§1) HEK293 cells were transfected with the appropriate plasmids (TrkA, p75^NTR, RIP2, TRAF-6, and RhoGDI) by using Lipofectamine 2000 (Invitrogen). Cells were harvested 48 h after transfection and suspended in lysis buffer (50 mM Tris-HCl, 0.15 M NaCl, 1% Triton-X100, pH 7.4) supplemented with protease inhibitors. Lysates were precleared for 1 h with Protein A-Sepharose beads (Amersham) and immunoprecipitated with the appropriate antibody (pTyr, Flag, or c-myc) overnight at 4°C. Protein A Sepharose beads were incubated with the lysates for 4 h at 4°C with gentle shaking. […] Beads were collected by centrifugation, washed four times with lysis buffer, and resuspended in SDS loading buffer. Proteins were separated by SDS/PAGE, followed by immunoblotting with specific antibodies.
(§2) PC12 or HEK293 cells lysates were electrophoresed through a 12% SDS-polyacrylamide gel, and then proteins were transferred to nitrocellulose membranes, which were processed according to standard Western blotting procedures, as previously described. To detect protein levels, membranes were incubated with the appropriate antibodies: Bcl-2 (dilution 1∶500), phospho TrkA (dilution 1∶500), total TrkA (dilution1∶500), p75^NTR (dilution 1∶500), phospho Shc (dilution 1∶1000), total Shc (dilution 1∶1000), phospho Akt (dilution 1∶500), total Akt (dilution 1∶500), phospho ERK1/2 (dilution 1∶500), and total ERK1/2 (dilution 1∶500). Proteins were visualized using the ECL Western blotting kit (ECL Amersham Biosciences, UK), and blots were exposed to Kodak X-Omat AR films. A PC-based Image Analysis program was used to quantify the intensity of each band (Image Analysis, Inc., Ontario, Canada).
(§3) To normalize for protein content the blots were stripped and stained with GAPDH antibody (dilution 1∶1000); the concentration of each target protein was normalized versus GAPDH. Where phosphorylation of TrkA or kinases was measured, membranes were first probed for the phosphorylated form of the protein, then stripped, and probed for the total protein.

[2] = tested on: Shc, ERK1/2, and Akt kinases; assay: Phosphorylation of Shc, ERK1/2 and Akt kinases in PC12 cells (Western blot); format: cell-based; settings: serum deprived naive PC12 cells, 10 min; 100 nM DHEA, 100 ng/ml NGF
Protocol: as §2, §3

PC12 cell membranes = assay: [3H]-DHEA displacement, PC12 cell membranes; format: binding; settings: unpublished data
Protocol: HEK293 cells transfected with an empty vector (HEK293-Vector) or overexpressing p75^NTR (HEK293-p75) or TrkA (HEK293-TrkA), and PC12 cells wild type or shRNA knocked down for p75^NTR and TrkA, were cultured, collected by scraping on ice and washed twice with cold Phosphate Buffer Saline (PBS), pH 7.4. After centrifugation at 1,200 rpm, cells were homogenized in a 50 mM Tris-HCl buffer, pH 7.4 (at 4°C), containing freshly added protease inhibitors (1 mM PMSF and 1 µg/ml aprotinin). Crude membrane fractions were isolated by differential centrifugation at 2,500×g (10 min at 4°C, to remove unbroken cells and nuclei) and 102,000×g (1 h, at 4°C). Membranes were washed once with ice-cold 50 mM Tris–HCl buffer, pH 7.4, and re-suspended in the same buffer. […]
Membranes were incubated for 30 min at 25°C or overnight at 4°C, on a rotating plate; then they were collected on GF/B filters, prewetted in 0.5% PEI solution at 4°C. Filters were washed three times with ice-cold PBS, dried, and counted in scintillation fluid (SigmaFluor, Sigma) in a scintillation counter (Perkin Elmer, Foster City, CA) with 60% efficiency for Tritium. For saturation curves, specific binding (Bound, B) was calculated as the difference of Total Binding − Non Specific Binding. KDs were calculated from B/F over B Scatchard plots. […]

TrkA receptor = target: TrkA receptor; design: method as in PMID 16939974; settings: read-out: KD of NGF binding to TrkA receptor; cited from earlier work
TrkA [3] = assay: TrkA protein levels in serum deprived PC12 cells (immunoblotting); format: cell-based; settings: serum deprived PC12, 12 to 48 h; 100 nM DHEA, 100 ng/ml NGF; n = 5, p<0.01
Protocol: as §2, §3

[4] = target: T2, p75^NTR with effectors TRAF6, RIP2, RhoGDI (Rattus norvegicus, UniProt P07174); assay: Co-immunoprecipitation of p75NTR with effectors TRAF6, RIP2, RhoGDI in co-transfected HEK293 cells; format: cell-based; settings: co-transfected HEK293, 30 min; 100 nM DHEA, 100 ng/ml NGF
T2 construct: expressed in transfected cells; host or cells: HEK293
T2 sequence (P07174 30-425): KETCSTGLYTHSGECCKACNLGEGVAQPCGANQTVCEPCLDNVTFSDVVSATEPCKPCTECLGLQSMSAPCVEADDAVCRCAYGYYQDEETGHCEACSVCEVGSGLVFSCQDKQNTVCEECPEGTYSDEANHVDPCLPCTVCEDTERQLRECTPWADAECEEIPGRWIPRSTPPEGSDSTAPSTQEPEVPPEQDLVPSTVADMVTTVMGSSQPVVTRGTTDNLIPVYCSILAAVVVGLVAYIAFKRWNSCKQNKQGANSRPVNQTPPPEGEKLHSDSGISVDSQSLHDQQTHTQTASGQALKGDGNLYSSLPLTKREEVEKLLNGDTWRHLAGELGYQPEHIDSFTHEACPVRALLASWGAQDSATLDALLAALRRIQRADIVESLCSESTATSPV
Protocol: as §1

p75^NTR = assay: p75NTR protein levels in serum deprived PC12 cells (immunoblotting); format: cell-based; settings: serum deprived PC12, between 24 and 48 h; 100 nM DHEA, 100 ng/ml NGF; n = 5, p<0.01
Protocol: as §2, §3

TrkA [5] = target: T1, TrkA; assay: Tyr490 TrkA phosphorylation in naive PC12 cells (Western blot); format: cell-based; design: PC12 cells, endogenously expressing TrkA receptors; endogenous in cells; host or cells: PC12; settings: 10 min, DHEA 100 nM, NGF 100 ng/ml
Protocol: as §2, §3

nnr5 cells = assay: Apoptosis of nnr5 cells (PC12 clone expressing only p75NTR); format: cell-based; settings: DHEA 100 nM, NGF 100 ng/ml
Protocol: PC12 cells were obtained from LGC Promochem (LGC Standards GmbH, Germany) and nnr5 cells from Dr. C.F. Ibáñez (Karolinska Institute). Both cell types were grown in RPMI 1640 containing 2 mM L-glutamine, 15 mM HEPES, 100 units/ml penicillin, 0.1 mg/ml streptomycin, and 10% horse serum, 5% fetal calf serum (both charcoal-stripped for removing endogenous steroids) at 5% CO2 and 37°C. HEK-293 cells were obtained from LGC Promochem. Cells were grown in DMEM medium containing 10% fetal bovine serum (charcoal-stripped for removing endogenous steroids), 100 units/ml penicillin, and 0.1 mg/ml streptomycin, at 5% CO2 and […]. HEK-293 and PC12 cells were transfected with Lipofectamine 2000 (InVitrogen) according to manufacturer's instructions. Transfected cells were typically used on the 2nd day after transfection.
PC12 cells were cultured in 12-well plates, and 24 h later they were transfected with the si/shRNAs for TrkA and/or p75^NTR. […] Apoptosis was quantified 24 h later with annexin V-FITC and PI (BD Pharmingen) according to our protocol.

p75^NTR receptor = target: p75^NTR receptor; design: method as in PMID 16939974; settings: read-out: KD of NGF binding to p75NTR receptor; cited from earlier work

T1 sequence (P35739 33-799): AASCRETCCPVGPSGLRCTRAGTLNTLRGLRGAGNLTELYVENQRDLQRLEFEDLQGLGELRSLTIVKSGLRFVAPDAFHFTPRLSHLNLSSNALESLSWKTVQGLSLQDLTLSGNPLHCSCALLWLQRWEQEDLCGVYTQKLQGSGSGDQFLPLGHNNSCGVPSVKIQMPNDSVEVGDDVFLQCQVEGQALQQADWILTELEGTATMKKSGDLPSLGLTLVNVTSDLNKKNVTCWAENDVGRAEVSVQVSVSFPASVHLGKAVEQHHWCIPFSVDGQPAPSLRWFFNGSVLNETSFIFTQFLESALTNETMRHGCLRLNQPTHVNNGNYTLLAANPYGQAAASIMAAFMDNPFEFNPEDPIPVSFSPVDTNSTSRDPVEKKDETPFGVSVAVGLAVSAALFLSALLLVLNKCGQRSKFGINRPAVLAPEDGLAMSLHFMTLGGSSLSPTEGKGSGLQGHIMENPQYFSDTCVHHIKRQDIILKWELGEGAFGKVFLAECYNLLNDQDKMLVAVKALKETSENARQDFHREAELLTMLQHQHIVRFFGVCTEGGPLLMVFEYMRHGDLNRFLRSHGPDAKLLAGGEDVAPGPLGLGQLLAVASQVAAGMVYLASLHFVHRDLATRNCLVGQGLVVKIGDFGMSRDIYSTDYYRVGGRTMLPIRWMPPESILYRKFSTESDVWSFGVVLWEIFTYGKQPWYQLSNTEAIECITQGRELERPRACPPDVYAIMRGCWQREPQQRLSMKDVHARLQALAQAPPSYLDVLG

B1: NGF: neurotrophin nerve growth factor (protein)
chain: SSTHPVFHMGEFSVCDSVSVWVGDKTTATDIKGKEVTVLAEVNINNSVFRQYFFETKCRASNPVESGCRGIDSKHWNSYCTTTHTFVKALTTDEKQAAWRFIRIDTACVCVLSRKATRRG
TrkA [1]
  phosphorylation of TrkA: strongly increased
[2]
  phosphorylation of Shc, ERK1/2, and Akt kinases: strongly increased
PC12 cell membranes
  IC50: 0.92 ± 0.32 nM
TrkA receptor
  Kd: 0.01 nM
TrkA [3]
  TrkA receptor levels: significantly increased
[4]
  association of p75NTR with effectors TRAF6 and RIP2: efficiently induced the association
  dissociation of RhoGDI from p75NTR receptors: facilitating the dissociation
p75^NTR
  p75NTR receptor levels: significantly decreased
TrkA [5]
  phosphorylation of TrkA (Tyr490): strongly induced
nnr5 cells
  effect on apoptosis of nnr5 cells: induced apoptosis
p75^NTR receptor
  Kd: 1 nM
